We go through 5 molecules from patent US20260116990A1 (KEY2BRAIN, published 2026).

The target of experiment [1] is T1, His-tagged ectodomain of human transferrin receptor 1 (hTfR1, R121-F760) (human, UniProt P02786 121-760).
T1 construct: Made in CHO cells; Biotinylated for some uses; also called human TfR1
Nature of the experiment: SPR Biacore 8K single-cycle; hTfR1 amine-coupled to CM5 chip, fusion as analyte. For orientation: Surface plasmon resonance follows binding to a sensor surface in real time, without labels.

Experiment [2] has as its target T2, His-tagged ectodomain of mouse transferrin receptor 1 (mTfR1, S122-F763) (mouse, UniProt Q62351 122-763).
T2 construct: also called mouse TfR1
Put plainly: ELISA on coated TfR1 ectodomain; 125I-labelled or original sample, anti-VHH detection. How it is done: Briefly, high-binding half-area 96-well plates (Costar 3690, Merck) were coated with ectodomains of hTfR1 and mTfR1 at […] (in PBS pH 7.4). and left over night at 4° C. Plates were blocked for 1 h using 1% BSA 0.05% Tween®20 (Merck) in PBS.

Experiment [3] addresses T1, His-tagged ectodomain of human …. Put plainly: SPR; hTfR1 captured on amine-coupled hTf, binder as analyte. As to the method: (§1) The contact time was 150 s for each concentration at […] with a final dissociation step of 500 s. […] The data with respect to the association rate constant (ka), the dissociation rate constant (kd) and the equilibrium dissociation constant (KD) was evaluated using Biacore T200 software evaluation tool applying a Langmuir 1:1 model.

For experiment [4] the target is unchanged. Nature of the experiment: SPR Biacore T200 single-cycle; hTfR1 captured on amine-coupled hTf, binder as analyte; 1:1 model. As to the method:
as §1

T1 sequence (P02786 other isoform, or with tags, fused parts or gaps limits assumed): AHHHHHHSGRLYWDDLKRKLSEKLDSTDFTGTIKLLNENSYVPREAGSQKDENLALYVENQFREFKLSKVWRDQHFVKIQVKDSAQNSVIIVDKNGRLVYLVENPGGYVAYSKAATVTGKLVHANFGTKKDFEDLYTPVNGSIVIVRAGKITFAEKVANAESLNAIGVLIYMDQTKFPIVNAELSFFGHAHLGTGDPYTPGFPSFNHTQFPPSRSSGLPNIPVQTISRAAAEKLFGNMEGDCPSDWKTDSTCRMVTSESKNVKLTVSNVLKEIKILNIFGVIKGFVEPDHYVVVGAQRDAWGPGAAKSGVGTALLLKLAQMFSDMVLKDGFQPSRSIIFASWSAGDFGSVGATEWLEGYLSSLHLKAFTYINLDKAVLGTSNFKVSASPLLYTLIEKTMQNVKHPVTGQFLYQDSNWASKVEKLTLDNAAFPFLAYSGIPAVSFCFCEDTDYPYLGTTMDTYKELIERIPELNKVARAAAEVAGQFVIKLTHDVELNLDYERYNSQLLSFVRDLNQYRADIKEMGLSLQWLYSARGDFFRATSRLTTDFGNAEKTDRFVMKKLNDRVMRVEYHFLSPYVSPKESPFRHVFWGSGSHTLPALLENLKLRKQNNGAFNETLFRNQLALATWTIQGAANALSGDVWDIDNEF
T2 sequence (Q62351 other isoform, or with tags, fused parts or gaps limits assumed): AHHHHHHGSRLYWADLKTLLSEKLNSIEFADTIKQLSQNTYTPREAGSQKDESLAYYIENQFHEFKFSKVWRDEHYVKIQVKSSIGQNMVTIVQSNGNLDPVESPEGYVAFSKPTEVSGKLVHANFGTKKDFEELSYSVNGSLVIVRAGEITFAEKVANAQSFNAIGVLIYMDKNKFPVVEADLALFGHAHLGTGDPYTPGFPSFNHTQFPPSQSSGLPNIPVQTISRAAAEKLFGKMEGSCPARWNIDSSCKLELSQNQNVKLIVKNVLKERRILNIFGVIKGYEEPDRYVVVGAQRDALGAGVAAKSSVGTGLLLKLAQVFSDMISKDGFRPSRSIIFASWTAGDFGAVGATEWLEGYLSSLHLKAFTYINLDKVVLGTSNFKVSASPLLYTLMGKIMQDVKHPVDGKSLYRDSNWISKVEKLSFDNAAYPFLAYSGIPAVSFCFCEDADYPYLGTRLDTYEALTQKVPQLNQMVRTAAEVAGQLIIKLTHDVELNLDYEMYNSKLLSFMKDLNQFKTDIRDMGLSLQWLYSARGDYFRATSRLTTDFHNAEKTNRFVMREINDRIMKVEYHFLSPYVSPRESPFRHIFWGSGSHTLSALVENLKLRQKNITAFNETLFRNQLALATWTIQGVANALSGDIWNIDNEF

B1: BV-scFv (benchmark VHH BV at the N-terminus of 3D6 scFv) (bispecific antibody)
chain: EVQLVESGGGVVQPGGSLKLSCVASGTDFSINFIRWYRQAPGKQREFVAGFTATGNTNYADSMKGRFTISRDNTKNAVYLQIDSLKPEDTAVYYCYMLDKWGQGTQVTVSSGGGGSGGGGSGGGGSEVKLVESGGGLVKPGASLKLSCAASGFTFSNYGMSWVRQNSDKRLEWVASIRSGGGRTYYSDNVKGRFTISRENAKNTLYLQMSSLKSEDTALYYCVRYDHYSGSSDYWGQGTTVTVSGGGGSGGGGSGGGGSYVVMTQTPLTLSVTIGQPASISCKSSQSLLDSDGKTYLNWLLQRPGQSPKRLIYLVSKLDSGVPDRFTGSGSGTDFTLKISRIEAEDLGLYYCWQGTHFPRTFGGGTKLEIKGSENLYFQSHHHHHH
On to B1, for which, in experiment [1], binding was put at a Kd of 189 pM; the koff – broadly, a measure of how fast the partners let go of each other – came out at 0.000117 s⁻¹; the kon – broadly, the rate constant with which the complex forms – came to 617000 M⁻¹ s⁻¹. The binding result in experiment [2] was “binds”.

B2: KB_B01-scFv (KB_B01 at the N-terminus of 3D6 scFv) (bispecific antibody)
chain: QVQLQESGGGLVQAGGSLRLSCAASGTPFSNNYMRWYRQAPGKQREWVAGFTSGGSTNYADSVKGRFTISRDNAEGTVYLQMDNLKPEDTAVYYCYFLDVWGQGTQVTVSSGGGGSGGGGSGGGGSEVKLVESGGGLVKPGASLKLSCAASGFTFSNYGMSWVRQNSDKRLEWVASIRSGGGRTYYSDNVKGRFTISRENAKNTLYLQMSSLKSEDTALYYCVRYDHYSGSSDYWGQGTTVTVSGGGGSGGGGSGGGGSYVVMTQTPLTLSVTIGQPASISCKSSQSLLDSDGKTYLNWLLQRPGQSPKRLIYLVSKLDSGVPDRFTGSGSGTDFTLKISRIEAEDLGLYYCWQGTHFPRTFGGGTKLEIKGSENLYFQSHHHHHH
notes: also called VHH-scFv
B2: in experiment [1], the Kd (usually the free concentration of one partner at which half of the binding sites on the other are occupied at equilibrium, for simple one-to-one binding) was 845 pM; the koff came to 0.00045 s⁻¹; the kon stood at 535000 M⁻¹ s⁻¹. The binding result in experiment [2] was “binds”.

B3: KB_B01 monomeric VHH with C-terminal 6xHis tag and C-tag (VHH)
VHH: QVQLQESGGGLVQAGGSLRLSCAASGTPFSNNYMRWYRQAPGKQREWVAGFTSGGSTNYADSVKGRFTISRDNAEGTVYLQMDNLKPEDTAVYYCYFLDVWGQGTQVTVSS
notes: Single VHH unit from the E. coli periplasm
With B3, the “fold lower affinity (KD) than BA1” value in experiment [3] was 166 fold. In experiment [4], this molecule yielded a Kd of 3310 pM, a koff of 0.00198 s⁻¹ and a kon of 597000 M⁻¹ s⁻¹.

B4: scFv-KB_B01 (3D6 scFv at the N-terminus of KB_B01) (bispecific antibody)
chain: EVKLVESGGGLVKPGASLKLSCAASGFTFSNYGMSWVRQNSDKRLEWVASIRSGGGRTYYSDNVKGRFTISRENAKNTLYLQMSSLKSEDTALYYCVRYDHYSGSSDYWGQGTTVTVSGGGGSGGGGSGGGGSYVVMTQTPLTLSVTIGQPASISCKSSQSLLDSDGKTYLNWLLQRPGQSPKRLIYLVSKLDSGVPDRFTGSGSGTDFTLKISRIEAEDLGLYYCWQGTHFPRTFGGGTKLEIKGGGGSGGGGSGGGGSQVQLQESGGGLVQAGGSLRLSCAASGTPFSNNYMRWYRQAPGKQREWVAGFTSGGSTNYADSVKGRFTISRDNAEGTVYLQMDNLKPEDTAVYYCYFLDVWGQGTQVTVSSGSENLYFQSHHHHHH
notes: also called scFv-VHH
In experiment [1], B4 showed a Kd of 1800 pM, a koff of 0.000259 s⁻¹ and a kon of 144000 M⁻¹ s⁻¹. Also, in experiment [2], the binding result is on record as “binds”.

B5: scFv-BV (3D6 scFv at the N-terminus of benchmark VHH BV) (bispecific antibody)
chain: EVKLVESGGGLVKPGASLKLSCAASGFTFSNYGMSWVRQNSDKRLEWVASIRSGGGRTYYSDNVKGRFTISRENAKNTLYLQMSSLKSEDTALYYCVRYDHYSGSSDYWGQGTTVTVSGGGGSGGGGSGGGGSYVVMTQTPLTLSVTIGQPASISCKSSQSLLDSDGKTYLNWLLQRPGQSPKRLIYLVSKLDSGVPDRFTGSGSGTDFTLKISRIEAEDLGLYYCWQGTHFPRTFGGGTKLEIKGGGGSGGGGSGGGGSEVQLVESGGGVVQPGGSLKLSCVASGTDFSINFIRWYRQAPGKQREFVAGFTATGNTNYADSMKGRFTISRDNTKNAVYLQIDSLKPEDTAVYYCYMLDKWGQGTQVTVSSGSENLYFQSHHHHHH
notes: also called scFc-BV
In experiment [1], B5 returned a Kd of 698 pM, a koff of 0.000122 s⁻¹ and an on-rate constant (kon) of 175000 M⁻¹ s⁻¹. The binding result in experiment [2] is “binds”.
